These results are taken from article PMC3794440 (Biochemistry, 2013).

The target in experiment [1] is T1, wild-type Pin1 (Homo sapiens, UniProt Q13526). As to the kind of experiment: NMR titration. The class given is binding. To be noted: read-out: equilibrium dissociation constant Kd (WT), 295 K, 16.4 T, 30 mM imidazole-d4 pH 6.6, 5 mM DTT-d10, 30 mM NaCl, 0.03% NaN3, 90% H2O/10% D2O, uncertainties by jack-knife simulations.
Experiment [2] concerns the target I28A Pin1 (Homo sapiens, UniProt Q13526, I28A). Put plainly: NMR titration. The class given is binding. Conditions: read-out: equilibrium dissociation constant Kd (I28A), 295 K, 16.4 T, 30 mM imidazole-d4 pH 6.6, 5 mM DTT-d10, 30 mM NaCl, 0.03% NaN3, 90% H2O/10% D2O, uncertainties by jack-knife simulations.
The target in experiment [3] is T1, wild-type Pin1. Put plainly: chromogenic coupled isomerase assay of Kofron et al., WT. The class given is biochemical. To be noted: chromogenic substrate suc-AEPF-pNA.

Read-outs that look alike come from different tables or passages of the source.

As for EQPLpTPVTDL [Cdc25C phosphopeptide], the Kd in experiment [1] (residue A140, PPIase domain) was 9.7 ± 2 µM; in experiment [1] (residue G20, WW domain) it was 9.1 ± 0.4 µM; in experiment [1] (residue R14, WW domain), 2.7 ± 0.7 µM; in experiment [1] (residue R54, PPIase domain), 7.8 ± 0.4 µM; in experiment [2] (residue G20, WW domain) it was 43.5 ± 3 µM; in experiment [2] (residue R14, WW domain) it was 48.5 ± 4.9 µM. The Kd in experiment [2] (residue R54, PPIase domain) was 110 ± 10 µM.
For “WT: full-length wild-type human Pin1 (WW domain and PPIase domain)”, the “specificity constant kcat/KM (WT)” value in experiment [3] worked out at 4250 ± 213 mM^–1 s^–1.
